The text below walks through data of ChEMBL document CHEMBL1671727, “Expression, purification, and characterization of Aspergillus fumigatus sterol 14-alpha demethylase (CYP51) isoenzymes A and B” (Antimicrob Agents Chemother, 2010).

Substrate in the data set: CC(C)=CCC[C@@H](C)[C@H]1CC[C@@]2(C)C3=C(CC[C@]12C)[C@@]1(C)CC[C@H](O)C(C)(C)[C@@H]1CC3
Nature of the data set: Activity of Candida albicans CYP51.

B1: Lanosterol 14-alpha demethylase (Candida albicans SC5314) (protein)
chain: MAIVETVIDGINYFLSLSVTQQISILLGVPFVYNLVWQYLYSLRKDRAPLVFYWIPWFGSAASYGQQPYEFFESCRQKYGDVFSFMLLGKIMTVYLGPKGHEFVFNAKLSDVSAEDAYKHLTTPVFGKGVIYDCPNSRLMEQKKFAKFALTTDSFKRYVPKIREEILNYFVTDESFKLKEKTHGVANVMKTQPEITIFTASRSLFGDEMRRIFDRSFAQLYSDLDKGFTPINFVFPNLPLPHYWRRDAAQKKISATYMKEIKSRRERGDIDPNRDLIDSLLIHSTYKDGVKMTDQEIANLLIGILMGGQHTSASTSAWFLLHLGEKPHLQDVIYQEVVELLKEKGGDLNDLTYEDLQKLPSVNNTIKETLRMHMPLHSIFRKVTNPLRIPETNYIVPKGHYVLVSPGYAHTSERYFDNPEDFDPTRWDTAAAKANSVSFNSSDEVDYGFGKVSKGVSSPYLPFGGGRHRCIGEQFAYVQLGTILTTFVYNLRWTIDGYKVPDPDYSSMVVLPTEPAEIIWEKRETCMF
Take B1: the Michaelis-Menten constant (Km) stood at 7.4 µM.

As a reminder, the Km is the substrate concentration at which the rate is half of its maximum.
